Reference: a protein production outcome set (Wang et al. 2014)

test: label from the status in PepcDB records

Sequence | protein production
MEEELPLFSGDSGKPVQATLSSLKMLDVGKWPIFSLCSEEELQLIRQACVFGSAGNEVLYTTVNDEIFVLGTNCCGCLGLGDVQSTIEPRRLDSLNGKKIACLSYGSGPHIVLATTEGEVFTWGHNAYSQLGNGTTNHGLVPCHISTNLSNKQVIEVACGSYHSLVLTSDGEVFAWGYNNSGQVGSGSTVNQPIPRRVTGCLQNKVVVTIACGQMCCMAVVDTGEVYVWGYNGNGQLGLGNSGNQPTPCRVAALQGIRVQRVACGYAHTLVLTDEGQVYAWGANSYGQLGTGNKSNQSYPTPVTVEKDRIIEIAACHSTHTSAAKTQGGHVYMWGQCRGQSVILPHLTHFSCTDDVFACFATPAVTWRLLSVEPDDHLTVAESLKREFDNPDTADLKFLVDGKYIYAHKVLLKIRCEHFRSSLEDNEDDIVEMSEFSYPVYRAFLEYLYTDSISLSPEEAVGLLDLATFYRENRLKKLCQQTIKQGICEENAIALLSAAVKYDAQDLEEFCFRFCINHLTVVTQTSGFAEMDHDLLKNFISKASRVGAFKN | failed
MEEHGHHEMEGTPLGCHSHIKLLKINREHLVTNIRNTQCLVDNLLENGYFSAEDAEIVCACPTKPDKVRKILDLVQSKGEEVSEFFLYVLQQLEDAYVDLRLWLSEIGFSPSQLIRTKTIVNTDPVSRYTQQLRHQLGRDSKFMLCYAQKEDLLLEETYMDTLMELVGFNNENLGSLGGLDCLLDHSTGVLNEHGETVFVFGDAGVGKSMLLQRLQSLWASGRLTSTAKFFFHFRCRMFSCFKESDMLSLQDLLFKHFCYPEQDPEEVFSFLLRFPHTALFTFDGLDELHSDFDLSRVPDSCCPWEPAHPLVLLANLLSGRLLKGAGKLLTARTGVEVPRQLLRKKVLLRGFSPSHLRAYARRMFPERTAQEHLLQQLDANPNLCSLCGVPLFCWIIFRCFQHFQTVFEGSSSQLPDCAVTLTDVFLLVTEVHLNRPQPSSLVQRNTRSPAETLRAGWRTLHALGEVAHRGTDKSLFVFGQEEVQASKLQEGDLQLGFLRALPDVGPEQGQSYEFFHLTLQAFFTAFFLVADDKVSTRELLRFFREWTSPGEATSSSCHSSFFSFQCLGGRSRLGPDPFRNKDHFQFTNLFLCGLLAKARQKLLRQLVPKAILRRKRKALWAHLFASLRSYLKSLPRVQSGGFNQVHAMPTFLWMLRCIYETQSQKVGRLAARGISADYLKLAFCNACSADCSALSFVLHHFHRQLALDLDNNNLNDYGVQELQPCFSRLTVIRLSVNQITDTGVKVLCEELTKYKIVTFLGLYNNQITDIGARYVAQILDECRGLKHLKLGKNRITSEGGKCVALAVKNSTSIVDVGMWGNQIGDEGAKAFAEALKDHPSLTTLSLAFNGISPEGGKSLAQALKQNTTLTVIWLTKNELNDESAECFAEMLRVNQTLRHLWLIQNRITAKGTAQLARALQKNTAITEICLNGNLIKPEEAKVFENEKRIICF | failed
MEEKAKMRRLSTWKLKLRMFLATVLLFGLIYAILMVVGSILGLGGPLFYALLGFGVIFLQYLISPKIVELTMNVHYVSEAEAPRLHAMVDELARRAGIPKPMVGIAEIALPNAFAFGRTKADGRVCVTRGILNLLDEEELRAVLGHEISHIKHSDMIVMTLVSAVPLICYYIFWSTVFSRDDEANLVGIAALIAYFIGQLIVLFISRTREYYADQGSVEIGGQPHKLASALYKLVLRLSPVQQGRPETGRGCQGLLPE | failed
MEEKNIHMQPNINYSYRNPNMYNMNYHNPIVPPPQQQMQLFVNDWKSILSPMQTCKIKQQFDDREFVADYFMGFKLDFNNKYLILDASTELMKFTACEKSEFCYRNCLPKICIPMNMKILSYGKEISKPDILMEKDCTCTFLCFNRPTIKMYDFSNNNNKELIGTIKTPYRCCSYNFNLFDPSNNKIMYMDDTCCQMSILCPCPWGPFKYSNFFLRDANSKEKIAHLRKEVPFLKFVKRDIDNYTLDFEQVQNPEWKMMLLAFALFLDYMYYDRK | failed
MEELLREYLPILVFLAVAAGLGLVLILAAVVLAVRNPDPEKVSAYECGFNAFDDARMKFDVRFYLVSILFIIFDLEIAFLFPWAVGFKDMSDVGFWSMMVFLGVLTIGFAYEWKKGALEWQ | failed
MEEMFETSLKVIEQSGWLAPVLFIMLHVFRQVFFIPVIIICLVGGYLFGSFYGSLYSIIGLTATSALFYGIVHGFPRFLAKVSQLKKRFLGEKESLSLPQMMLLRIVPFIHFHLVSLYVMETRPTFREYMKISFYLSMPPAIIYTLFGDMIHELPLVGTVVFALFIGLLCFMARRKEQRYAWQEFFKA | failed
MEEMNVFLTMIYRELKRFIRSPSRIIGSILNPLLWLIFFGKGWSGVFNFPMATRIFGGVDYMTYLVPGVVVMTVFDMSFLQGLTIIWDKQFGFMKEILVAPASRVESILGRITGGAIVAMIQGFIMVALSFIVANLKVSGVIPTLILAFFVGVAIAGLGVAVALKMSSMEGFQIIVMMLMLPMMFLSGAFYPVRTMPNWMQWLAKINPLTYAVDGARYYLAGVTPTFGIMQDWIVLILLALVFAGFAGLEFRKAYLS | failed
MEENTAVAAAERRSGCGLLSVMFGRRGLWSKKSTAVDNGSQKSTSTAATATSNIQFTKSPGTELKKPRDDQKVSAEPIQNNKIQNNQNHNQRSVVPSKPSSNQYPNNHQLGTYENHQRSSYNNNSNSVDPYRGGGGQRKVPREAIGLSGELESMITDHQKAKGTNGLVRASSSNIMLYGNLGNLNQTGPVTAGVNYGNNNGYGVKRTTMGAATATTTKSQDQSGSLCRAISTRMDPETLKIMGNEDYKNGNFAEALALYDAAIAIDPNKAAYRSNKSAALTALGRILDAVFECREAIRIEPHYHRAHHRLGNLYLRLGEVEKSIYHFKHSGPEADREDIAKAKTVQTHLNKCTEAKRLRDWNGLITETTNTISSGADAAPQVYALQAEALLKTHRHQEADDALSRCPVFDIDASTRYYGPVGYAGFLVVRAQVHLASGRFDEAVEAIQRAGKLDGNNREVIMISRRAQAVTEARFKGNELFKSGRFQEACAAYGEGLDHDPRNSVLLCNRAACRSKLGQFDKSIEDCTAALSVRPGYGKARLRRADCNAKIEKWELAVGDYEILKKESPEDEQVIRGLSEAQQQLMKRSGQDS | failed
MEERELTLSDILLMFKRRSKLFWLVLVLTVFATGIYLFLATPQYEAYARVKVSTQKGMRLGLSIEGLLGGLSSLLGGGGSQEDEIQIMLSRRNIIAVIDELDLVHKLLDEKDIEKAKKNGLTEDDLKLSLYSYMVEKLITVEPVKNSSILEVKVTWHEPKLAAEIANKIVENYTKISENIAKSQLGAKMDFLEEQIPKVEQELKEAESKLKVFKEQNRIYSVEAQTQVLIDRYASLLQKMEEARIAMEATQKQSEFFSKELKDLDIEIEQIKDSITFDPIISQLKSNMINIQIELAGLMERYTETNPAVVQKKAELQETQKQLEIELKRLLTSQVKKTGNPVYEEALSSLIKAESEKILYQSQYEAFKKLYEDMEKELSKLPELEQKLIELERDYKVKETIYTTLLQAKYESLISEAAITANANVIDWAVPPLEPSKPNKKLTLAIGGVLGIFLGILAVFFAEFSDRRIKSESEAEYLLGLEKIVARVPLTQNEEVMEKALGIPAVKSGKVTFITALEDGAGVSTLAKHMAKLLSKKEKVLLLTEEKVEGTFDRKDVFDLLKNPDVLEELKERYDKIIVDAPSLKRTPDFLPIAEKSDTVYIVIRLEHTLSEDLKTLHTLKKIDGFILNGLTKKNSTYVE | failed
MEEVIWEQYTVTLQKDSKRGFGIAVSGGRDNPHFENGETSIVISDVLPGGPADGLLQENDRVVMVNGTPMEDVLHSFAVQQLRKSGKIAAIVVKRPRKVQVAPL | not failed
MEFAPRSVVIEEFIDTLEPMMEAYGLDQVGIFEEHGEGNRYYVGYTINKDDEMITIHMPFVKNERGELALEKQEWTVRKDGREKKGFHSLQEAMEEVIHS | not failed
MEFDKGQTLGNFIDRIRLNGYNTECVFNQSICQDIKNHYKQQCCAMCGVRGNSENTQIEVDHKDGRKDDSRVSDLSTQAFDDFQALCKACNDKKRQICKKCKETGYRFDARKIPGNHYSFYEGEAEYDGCVGCYQYDPIQYRKTCNDRIYNEGYQKGYSDGYQIGYHQKTT | failed
MEFEVKKTFGKARLGVMKLHHGAVETPVFMPVGTNASVKLLTPRDLEEAGAEIILSNTFHLMLKPGVEIIKLHRGLHNFMGWKRPILTDSGGFQVFSLPKIRIDDEGVVFRSPIDGSKVFLNPEISMEVQIALGSDICMVFDHCPVPDADYEEVKEATERTYRWALRSKKAFKTENQALFGIVQGGIYPDLRRESALQLTSIGFDGYAIGGLSIGEERSLTLEMTEVTVEFLPEDKPRYFMGGGSPELILELVDRGVDMFDSVFPTRIARHGTALTWNGKLNLKASYNKRSLEPVDERCGCYTCKNFTRSYIHHLFDRGEVLGQILLTIHNINFMISLMKEVRRSIESGTFKELKSKVVEVYSSGGVNV | not failed
MEFFAVSLDSHVFSHIKEIFLYNHNQKFYVVMMKHDDVLMILAAAALMFSFSWVHGMLLVLPLLAIPQLSSRTLKWGVLVLAVFVALLILQPMTRAVGLNISDELFRLVLLLLFTFMVALLIERIEKVRSLRELNLELKKQAEKLEDANKELEAFAYSVSHDLRVPLRAIDGFSRILVEDYEDKLDDEGVRILGIIRDNTRKMGQLIDDILLLSRAGRQEMNLAMLDMRELAESTYRELASQEEGRSIEFSVADLPPAMADRALMGQVMGNLLSNAIKFTRDRDPAVIEVGYMDGGDEHTYYVKDNGAGFDMKYASKLFGLFQRLHSQEEFEGTGVGLSIVQRIIKRHGGRVWGEGKVDGGATIYFTLPKVVK | failed
MEFLAYFNSVISNNIFLAIILSFFAGVVASFSPCTLSSIPLLIGYVQGSEVKDNKKAFKYSLIFSIGLGITFTVIGLLTALIGKAFLGAGKFWYIILAFIMIGSGLQVLDVINLFGDKKEACKITKRREGILDAFFLGILSGILASPCATPIMAAIIAFIAASGNLVIGMIMLLMYSLGHSVLIILAGTSFGLVEKIAYSENGKKIGRVLKNILGTIIILVGLYLFYLGV | failed
MEFLIILLLLVLNGIFAMYEIALVSSSKARLETLAGKGNKSARGVLKQLEEPEKFLSTIQIGITLIGIVSGAYGGVAIADDLVPLFSLIPGAEAYARNLAMITTVVIITYLSLIIGELVPKSIALSNPERYATLFSPIMILLTKVSYPFVWFLSISTRLLNRIIGVKNEERPMTQEEIKMILHQSSEQGVIDKEETEMLRDVFRFSDKRANELMTHRRDLVIFHPDDTKDKVMKTIEEEHYSKYLLVDERKDEIIGVVSVKDIILMVGNKKEFNLREIARPALFIPESLYANKILELFKKNKNKFGVVVNEYGSTEGIITLHDLTESIFGDILEEDDTEEEDIVRRQDGSMLVEASMNIKDFMEEMGILSYEDLEDEDFTTLGGLAMFLLGGIPKAGDIFTYKNLQFEVVDMDRGRVDKLLVIKRDEEE | failed
MEFMHDKSAEDEGITLVSEPMDTTVATHESRRNAAAFSSVVAPTTDDEIVHERFDPAFEVQADFYGFDENAPPLPLPEEYYSELPLPEEDRQYIPPPPALIPVEPETTFRRPRTRQQRRTESQLVQPVSVATYEDSKASLRVLMQQLPPPGDNVVARIPKRTHRVVRTLPPTFGTTKREENFYGFSKTAISWRKTRASWRHFCLLING | failed
MEFRLLHISDLHMIPGQETKKAWVSALDSLSPDLVINTGDNLSDEKAVPDVLRALGPLMNRPGAFVFGTNDYWAPRPVNPFGYLFGKKREVSHIDLPWRAMRAAFIEHGWQDANQKRLEFQVGSVRLAISGVDDPHHDLDDYTEIAGAPNVDADLSIALLHAPEPRVLAQFEADGYQLSLSGHTHGGQLEHHHHHH | failed
